Results from publication PMC9482650, “Quantitative fragmentomics allow affinity mapping of interactomes” (Nature Communications, 2022).

Each binder was assayed against T1, SYNJ2BP, P57105 (assay: holdup assay). Conditions: plain residues with an end cap or a label only (N-terminal biotin on a linker: ado-ado).
T1 sequence (P57105 8-110, limits assumed, looked up): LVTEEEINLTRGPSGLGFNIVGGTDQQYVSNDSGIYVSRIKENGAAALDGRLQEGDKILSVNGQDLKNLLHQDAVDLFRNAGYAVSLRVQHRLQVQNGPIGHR
Design: key: below the threshold = too weak to quantify, mostly under pKd 3.1 to 4

Row | Binder | pKd
1 | PSVYSRSQYV [CLDN8, P56748] | below the threshold
2 | RGKNRRQSIF [CDK18, Q07002] | below the threshold

What follows are binders tested against DLG4_2, P78352 (assay: holdup assay). Conditions: plain residues with an end cap or a label only (N-terminal biotin on a linker: ado-ado).
Chain of DLG4_2, P78352 (P78352 155-259): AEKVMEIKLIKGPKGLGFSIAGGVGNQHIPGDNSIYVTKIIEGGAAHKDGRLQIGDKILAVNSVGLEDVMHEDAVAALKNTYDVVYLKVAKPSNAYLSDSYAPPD
Design: key: below the threshold = too weak to quantify, mostly under pKd 3.1 to 4

Row | Binder | pKd
3 | PSVYSRSQYV [CLDN8, P56748] | 3.79
4 | RGKNRRQSIF [CDK18, Q07002] | 3.75

What follows are binders tested against T2, DFNB31_2, Q9P202 (assay: holdup assay). Conditions: plain residues with an end cap or a label only (N-terminal biotin on a linker: ado-ado).
T2 sequence (Q9P202 274-371, limits assumed, looked up): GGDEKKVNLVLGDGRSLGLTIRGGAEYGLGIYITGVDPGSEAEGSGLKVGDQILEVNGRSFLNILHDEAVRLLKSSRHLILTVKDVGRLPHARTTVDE
Design: key: below the threshold = too weak to quantify, mostly under pKd 3.1 to 4

Row | Binder | pKd
5 | PSVYSRSQYV [CLDN8, P56748] | below the threshold
6 | RGKNRRQSIF [CDK18, Q07002] | below the threshold

What follows are binders tested against T3, PARD3B_1, Q8TEW8 (assay: holdup assay). Conditions: plain residues with an end cap or a label only (N-terminal biotin on a linker: ado-ado).
T3 sequence (Q8TEW8 196-299, limits assumed, looked up): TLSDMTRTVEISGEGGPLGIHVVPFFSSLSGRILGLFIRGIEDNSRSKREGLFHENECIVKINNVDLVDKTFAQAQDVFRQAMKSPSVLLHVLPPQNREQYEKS
Design: key: below the threshold = too weak to quantify, mostly under pKd 3.1 to 4

Row | Binder | pKd
7 | PSVYSRSQYV [CLDN8, P56748] | 3.58
8 | RGKNRRQSIF [CDK18, Q07002] | 3.89

Each binder was assayed against Inadl_10, Q8NI35 (assay: holdup assay). Conditions: plain residues with an end cap or a label only (N-terminal biotin on a linker: ado-ado).
Chain of Inadl_10, Q8NI35 (Q8NI35 1673-1763): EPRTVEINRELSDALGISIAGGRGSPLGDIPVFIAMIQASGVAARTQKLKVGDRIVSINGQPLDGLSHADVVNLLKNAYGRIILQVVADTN
Design: key: below the threshold = too weak to quantify, mostly under pKd 3.1 to 4

Row | Binder | pKd
9 | PSVYSRSQYV [CLDN8, P56748] | below the threshold
10 | RGKNRRQSIF [CDK18, Q07002] | below the threshold

These binders were tested against Inadl_5, Q8NI35 (assay: holdup assay). Conditions: plain residues with an end cap or a label only (N-terminal biotin on a linker: ado-ado).
Chain of Inadl_5, Q8NI35 (Q8NI35 673-780): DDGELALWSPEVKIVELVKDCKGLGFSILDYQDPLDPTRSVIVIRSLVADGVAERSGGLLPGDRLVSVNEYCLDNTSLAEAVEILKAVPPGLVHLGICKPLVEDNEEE
Design: key: below the threshold = too weak to quantify, mostly under pKd 3.1 to 4

Row | Binder | pKd
11 | PSVYSRSQYV [CLDN8, P56748] | 4.31
12 | RGKNRRQSIF [CDK18, Q07002] | below the threshold

The binders below were run against T4, MPDZ_10, O75970 (assay: holdup assay). Conditions: plain residues with an end cap or a label only (N-terminal biotin on a linker: ado-ado).
T4 sequence (O75970 1624-1722, limits assumed, looked up): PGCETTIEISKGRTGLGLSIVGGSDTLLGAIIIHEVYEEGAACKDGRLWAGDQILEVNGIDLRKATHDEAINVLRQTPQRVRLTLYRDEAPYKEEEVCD
Design: key: below the threshold = too weak to quantify, mostly under pKd 3.1 to 4

Row | Binder | pKd
13 | PSVYSRSQYV [CLDN8, P56748] | below the threshold
14 | RGKNRRQSIF [CDK18, Q07002] | 3.48

The binders below were run against Inadl_9, Q8NI35 (assay: holdup assay). Conditions: plain residues with an end cap or a label only (N-terminal biotin on a linker: ado-ado).
Chain of Inadl_9, Q8NI35 (Q8NI35 1530-1615): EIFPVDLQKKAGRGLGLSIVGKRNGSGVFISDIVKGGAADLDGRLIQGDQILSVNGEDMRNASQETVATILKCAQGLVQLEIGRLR
Design: key: below the threshold = too weak to quantify, mostly under pKd 3.1 to 4

Row | Binder | pKd
15 | PSVYSRSQYV [CLDN8, P56748] | 4.36
16 | RGKNRRQSIF [CDK18, Q07002] | below the threshold

The binders below were run against TJP2_1, Q9UDY2 (assay: holdup assay). Conditions: plain residues with an end cap or a label only (N-terminal biotin on a linker: ado-ado).
Chain of TJP2_1, Q9UDY2 (Q9UDY2 24-128): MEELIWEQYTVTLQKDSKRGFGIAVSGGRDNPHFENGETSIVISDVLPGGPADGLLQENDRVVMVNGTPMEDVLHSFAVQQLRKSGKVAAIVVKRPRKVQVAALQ
Design: key: below the threshold = too weak to quantify, mostly under pKd 3.1 to 4

Row | Binder | pKd
17 | PSVYSRSQYV [CLDN8, P56748] | 4.87
18 | RGKNRRQSIF [CDK18, Q07002] | 3.47

These binders were tested against T5, HTRA3, P83110 (assay: holdup assay). Conditions: plain residues with an end cap or a label only (N-terminal biotin on a linker: ado-ado).
T5 sequence (P83110 354-453, limits assumed, looked up): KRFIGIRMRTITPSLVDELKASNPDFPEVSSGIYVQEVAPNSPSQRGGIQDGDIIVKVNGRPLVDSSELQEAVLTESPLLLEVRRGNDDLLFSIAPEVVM
Design: key: below the threshold = too weak to quantify, mostly under pKd 3.1 to 4

Row | Binder | pKd
19 | PSVYSRSQYV [CLDN8, P56748] | 4.72
20 | RGKNRRQSIF [CDK18, Q07002] | below the threshold

What follows are binders tested against NHERF4_4, Q86UT5 (assay: holdup assay). Conditions: plain residues with an end cap or a label only (N-terminal biotin on a linker: ado-ado).
Chain of NHERF4_4, Q86UT5 (Q86UT5 464-550): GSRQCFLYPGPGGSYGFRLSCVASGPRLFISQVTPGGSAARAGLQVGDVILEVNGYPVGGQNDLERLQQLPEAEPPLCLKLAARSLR
Design: key: below the threshold = too weak to quantify, mostly under pKd 3.1 to 4

Row | Binder | pKd
21 | PSVYSRSQYV [CLDN8, P56748] | below the threshold
22 | RGKNRRQSIF [CDK18, Q07002] | below the threshold

These binders were tested against T6, DLG3_3, Q92796 (assay: holdup assay). Conditions: plain residues with an end cap or a label only (N-terminal biotin on a linker: ado-ado).
T6 sequence (Q92796 374-475, limits assumed, looked up): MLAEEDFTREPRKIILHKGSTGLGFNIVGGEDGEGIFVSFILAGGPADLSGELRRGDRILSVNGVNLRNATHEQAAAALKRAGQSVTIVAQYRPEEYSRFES
Design: key: below the threshold = too weak to quantify, mostly under pKd 3.1 to 4

Row | Binder | pKd
23 | PSVYSRSQYV [CLDN8, P56748] | below the threshold
24 | RGKNRRQSIF [CDK18, Q07002] | 3.71

These binders were tested against T7, PTPN13_1, Q12923 (assay: holdup assay). Conditions: plain residues with an end cap or a label only (N-terminal biotin on a linker: ado-ado).
T7 sequence (Q12923 1088-1188, limits assumed, looked up): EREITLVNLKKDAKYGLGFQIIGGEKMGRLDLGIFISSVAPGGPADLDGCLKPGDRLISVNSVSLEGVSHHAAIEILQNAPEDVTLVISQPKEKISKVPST
Design: key: below the threshold = too weak to quantify, mostly under pKd 3.1 to 4

Row | Binder | pKd
25 | PSVYSRSQYV [CLDN8, P56748] | below the threshold
26 | RGKNRRQSIF [CDK18, Q07002] | below the threshold

These binders were tested against GORASP2, Q9H8Y8 (assay: holdup assay). Conditions: plain residues with an end cap or a label only (N-terminal biotin on a linker: ado-ado).
Design: key: below the threshold = too weak to quantify, mostly under pKd 3.1 to 4

Row | Binder | pKd
27 | PSVYSRSQYV [CLDN8, P56748] | 4.88
28 | RGKNRRQSIF [CDK18, Q07002] | 3.87

The binders below were run against HTRA1, Q92743 (assay: holdup assay). Conditions: plain residues with an end cap or a label only (N-terminal biotin on a linker: ado-ado).
Chain of HTRA1, Q92743 (Q92743 360-477): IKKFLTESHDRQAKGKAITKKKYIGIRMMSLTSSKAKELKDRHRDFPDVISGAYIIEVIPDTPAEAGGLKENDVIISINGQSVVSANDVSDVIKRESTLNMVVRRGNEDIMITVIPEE
Design: key: below the threshold = too weak to quantify, mostly under pKd 3.1 to 4

Row | Binder | pKd
29 | PSVYSRSQYV [CLDN8, P56748] | 5.03
30 | RGKNRRQSIF [CDK18, Q07002] | 4

The binders below were run against LAP2, Q96RT1 (assay: holdup assay). Conditions: plain residues with an end cap or a label only (N-terminal biotin on a linker: ado-ado).
Chain of LAP2, Q96RT1 (Q96RT1 other isoform, or with tags, fused parts or gaps): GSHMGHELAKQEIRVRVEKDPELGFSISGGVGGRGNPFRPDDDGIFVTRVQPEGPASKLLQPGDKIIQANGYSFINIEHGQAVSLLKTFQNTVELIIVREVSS
Design: key: below the threshold = too weak to quantify, mostly under pKd 3.1 to 4

Row | Binder | pKd
31 | PSVYSRSQYV [CLDN8, P56748] | below the threshold
32 | RGKNRRQSIF [CDK18, Q07002] | 3.74

These binders were tested against T8, GRIP1_4, Q9Y3R0 (assay: holdup assay). Conditions: plain residues with an end cap or a label only (N-terminal biotin on a linker: ado-ado).
T8 sequence (Q9Y3R0 467-571, limits assumed, looked up): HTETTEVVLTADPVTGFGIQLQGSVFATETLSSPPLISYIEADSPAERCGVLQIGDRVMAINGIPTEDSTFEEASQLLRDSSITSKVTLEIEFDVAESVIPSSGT
Design: key: below the threshold = too weak to quantify, mostly under pKd 3.1 to 4

Row | Binder | pKd
33 | PSVYSRSQYV [CLDN8, P56748] | below the threshold
34 | RGKNRRQSIF [CDK18, Q07002] | below the threshold

What follows are binders tested against T9, GRIP1_2, Q9Y3R0 (assay: holdup assay). Conditions: plain residues with an end cap or a label only (N-terminal biotin on a linker: ado-ado).
T9 sequence (Q9Y3R0 145-248, limits assumed, looked up): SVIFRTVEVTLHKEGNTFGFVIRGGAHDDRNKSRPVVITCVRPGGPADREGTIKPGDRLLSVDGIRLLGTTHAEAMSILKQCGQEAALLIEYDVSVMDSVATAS
Design: key: below the threshold = too weak to quantify, mostly under pKd 3.1 to 4

Row | Binder | pKd
35 | PSVYSRSQYV [CLDN8, P56748] | below the threshold
36 | RGKNRRQSIF [CDK18, Q07002] | below the threshold

The binders below were run against T10, RHPN1, Q8TCX5 (assay: holdup assay). Conditions: plain residues with an end cap or a label only (N-terminal biotin on a linker: ado-ado).
T10 sequence (Q8TCX5 508-602, limits assumed, looked up): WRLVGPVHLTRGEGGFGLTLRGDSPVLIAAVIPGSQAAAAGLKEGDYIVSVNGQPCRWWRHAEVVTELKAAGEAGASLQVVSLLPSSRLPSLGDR
Design: key: below the threshold = too weak to quantify, mostly under pKd 3.1 to 4

Row | Binder | pKd
37 | PSVYSRSQYV [CLDN8, P56748] | below the threshold
38 | RGKNRRQSIF [CDK18, Q07002] | 3.58

The binders below were run against DLG2_2, Q15700 (assay: holdup assay). Conditions: plain residues with an end cap or a label only (N-terminal biotin on a linker: ado-ado).
Chain of DLG2_2, Q15700 (Q15700 189-283): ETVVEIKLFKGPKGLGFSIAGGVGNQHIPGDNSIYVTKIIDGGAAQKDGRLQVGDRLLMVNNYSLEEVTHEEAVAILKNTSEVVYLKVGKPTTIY
Design: key: below the threshold = too weak to quantify, mostly under pKd 3.1 to 4

Row | Binder | pKd
39 | PSVYSRSQYV [CLDN8, P56748] | below the threshold
40 | RGKNRRQSIF [CDK18, Q07002] | 3.5

The binders below were run against IL16_1, Q14005 (assay: holdup assay). Conditions: plain residues with an end cap or a label only (N-terminal biotin on a linker: ado-ado).
Chain of IL16_1, Q14005 (Q14005 210-306): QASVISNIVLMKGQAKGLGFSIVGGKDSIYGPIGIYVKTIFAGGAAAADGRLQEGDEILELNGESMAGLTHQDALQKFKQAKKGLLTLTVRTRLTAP
Design: key: below the threshold = too weak to quantify, mostly under pKd 3.1 to 4

Row | Binder | pKd
41 | PSVYSRSQYV [CLDN8, P56748] | below the threshold
42 | RGKNRRQSIF [CDK18, Q07002] | below the threshold

Each binder was assayed against NOS1, P29475 (assay: holdup assay). Conditions: plain residues with an end cap or a label only (N-terminal biotin on a linker: ado-ado).
Chain of NOS1, P29475 (P29475 9-101): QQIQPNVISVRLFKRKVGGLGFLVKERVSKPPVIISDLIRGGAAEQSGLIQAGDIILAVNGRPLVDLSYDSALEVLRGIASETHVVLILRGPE
Design: key: below the threshold = too weak to quantify, mostly under pKd 3.1 to 4

Row | Binder | pKd
43 | PSVYSRSQYV [CLDN8, P56748] | 3.99
44 | RGKNRRQSIF [CDK18, Q07002] | 3.75

What follows are binders tested against T11, LIN7B, Q9HAP6 (assay: holdup assay). Conditions: plain residues with an end cap or a label only (N-terminal biotin on a linker: ado-ado).
T11 sequence (Q9HAP6 88-185, limits assumed, looked up): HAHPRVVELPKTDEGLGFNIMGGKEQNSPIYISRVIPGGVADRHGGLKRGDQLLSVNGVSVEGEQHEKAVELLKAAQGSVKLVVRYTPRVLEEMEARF
Design: key: below the threshold = too weak to quantify, mostly under pKd 3.1 to 4

Row | Binder | pKd
45 | PSVYSRSQYV [CLDN8, P56748] | below the threshold
46 | RGKNRRQSIF [CDK18, Q07002] | 4.03

The binders below were run against T12, DLG3_2, Q92796 (assay: holdup assay). Conditions: plain residues with an end cap or a label only (N-terminal biotin on a linker: ado-ado).
T12 sequence (Q92796 221-321, limits assumed, looked up): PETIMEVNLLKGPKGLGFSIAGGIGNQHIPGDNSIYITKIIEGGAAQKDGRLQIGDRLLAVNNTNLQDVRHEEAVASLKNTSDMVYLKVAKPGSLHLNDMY
Design: key: below the threshold = too weak to quantify, mostly under pKd 3.1 to 4

Row | Binder | pKd
47 | PSVYSRSQYV [CLDN8, P56748] | 3.74
48 | RGKNRRQSIF [CDK18, Q07002] | 4.19

Each binder was assayed against TJP1_3, Q07157 (assay: holdup assay). Conditions: plain residues with an end cap or a label only (N-terminal biotin on a linker: ado-ado).
Chain of TJP1_3, Q07157 (Q07157 416-512): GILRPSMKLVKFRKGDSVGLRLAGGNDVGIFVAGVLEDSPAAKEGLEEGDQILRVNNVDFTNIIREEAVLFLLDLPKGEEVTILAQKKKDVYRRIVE
Design: key: below the threshold = too weak to quantify, mostly under pKd 3.1 to 4

Row | Binder | pKd
49 | PSVYSRSQYV [CLDN8, P56748] | below the threshold
50 | RGKNRRQSIF [CDK18, Q07002] | below the threshold
